From paper PMC4180971 (Genes & Development, 2014)

T1: Est3-(Flag)3 (S. cerevisiae, UniProt Q03096 1-181)
T1 sequence (looked up): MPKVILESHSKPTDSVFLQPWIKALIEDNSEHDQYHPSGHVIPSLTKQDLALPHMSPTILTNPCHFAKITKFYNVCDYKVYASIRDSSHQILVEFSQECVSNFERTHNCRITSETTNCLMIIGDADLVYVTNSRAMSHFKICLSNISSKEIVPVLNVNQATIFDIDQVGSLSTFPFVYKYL

B1: Est1-(myc)12 (natural protein, S. cerevisiae, UniProt P17214 1-699, looked up)
chain: MDNEEVNEECMRLFFKNARAHLDKHLTSRLTCDENAYITFRCFLDGIHRKSTRFLEELLLKQENMYHNNNYERINDSVIPLVLKLLWLQIHEPTLQWFEHWFHDIMRLSNRRKFRVFRIFQKKMIQFFKITHRYYYDIIEHLCAKYDMNSVISNALFAKLNLMQYTDGLSTHEKIILNTSNPLTFSIVISLQRCVINLGSTHFYKTLLNKPSNKPKSVEGFEKSIRYLNIASLYLPAVGDTYFQRAKIYLITGKFSLYFFELVRGALVRIPSKCALNNLKDFILTPDFPERRRLMKKLAILVSKDLKGEKSFFEGQIVLQFLSIVEHTLVPQSWNASRASNCWLLKEHLQMAALKYHSGNINVILENLAATMGSFDLMFTTRKSKEQKNKLKYADLSERQVFFLDLSFDFIANIIDVVIKPSWQKNMEDFRYLAIIRLLMCWIKSYRSILQYTHRHRKFCTSFALLLNDLINSPLNCSGNIYSHRPKRSYLFREDIIFREFSCINFALTDFNDDYVYDSPDMINNIIGCPTLTKVLSPKEECVLRIRSIIFSGMKFLEKNDTGVIWNASKYKFDLISPNIKIKRQIALSEISSKINVKTQQERVVSSRKVEAKRDEQQRKRAGKIAVTELEKQFANVRRTKKLSPLPEKDGVSSELVKHAASRGRKTITGPLSSDFLSYPDEAIDADEDITVQVPDTPT
B2: (myc)12-Est2 (natural protein, S. cerevisiae, UniProt Q06163 1-884, looked up)
chain: MKILFEFIQDKLDIDLQTNSTYKENLKCGHFNGLDEILTTCFALPNSRKIALPCLPGDLSHKAVIDHCIIYLLTGELYNNVLTFGYKIARNEDVNNSLFCHSANVNVTLLKGAAWKMFHSLVGTYAFVDLLINYTVIQFNGQFFTQIVGNRCNEPHLPPKWAQRSSSSSATAAQIKQLTEPVTNKQFLHKLNINSSSFFPYSKILPSSSSIKKLTDLREAIFPTNLVKIPQRLKVRINLTLQKLLKRHKRLNYVSILNSICPPLEGTVLDLSHLSRQSPKERVLKFIIVILQKLLPQEMFGSKKNKGKIIKNLNLLLSLPLNGYLPFDSLLKKLRLKDFRWLFISDIWFTKHNFENLNQLAICFISWLFRQLIPKIIQTFFYCTEISSTVTIVYFRHDTWNKLITPFIVEYFKTYLVENNVCRNHNSYTLSNFNHSKMRIIPKKSNNEFRIIAIPCRGADEEEFTIYKENHKNAIQPTQKILEYLRNKRPTSFTKIYSPTQIADRIKEFKQRLLKKFNNVLPELYFMKFDVKSCYDSIPRMECMRILKDALKNENGFFVRSQYFFNTNTGVLKLFNVVNASRVPKPYELYIDNVRTVHLSNQDVINVVEMEIFKTALWVEDKCYIREDGLFQGSSLSAPIVDLVYDDLLEFYSEFKASPSQDTLILKLADDFLIISTDQQQVINIKKLAMGGFQKYNAKANRDKILAVSSQSDDDTVIQFCAMHIFVKELEVWKHSSTMNNFHIRSKSSKGIFRSLIALFNTRISYKTIDTNLNSTNTVLMQIDHVVKNISECYKSAFKDLSINVTQNMQFHSFLQRIIEMTVSGCPITKCDPLIEYEVRFTILNGFLESLSSNTSKFKDNIILLRKEIQHLQAYIYIYIHIVN

Experiments:
Est3-(Flag)3 [1] = molecular target: T1, Est3-(Flag)3; experiment: co-IP
Est3-(Flag)3 [2] = molecular target: T1, Est3-(Flag)3; experiment: co-IP; remark: listed apart in the source

Binder | Est1:Est2 ratio in the anti-Est3 immunoprecipitate (Est3-(Flag)3 [1]) | fold reduction in the tlc1-59 strain against the TLC1 strain (Est3-(Flag)3 [2]) | fold higher co-precipitation in G2/M than in G1 (Est3-(Flag)3 [1]) | fold increase in G2/M against G1 (quaternary complex) (Est3-(Flag)3 [1])
B1 | ~4 Est1 per Est2 | ~20 fold | – | –
B2 | – | – | ~20 fold | ~20 fold
